{"source": "patent US12397037B2", "about": "“Methods and compositions for immunomodulation” (CHILDREN'S MEDICAL CENTER CORPORATION, priority 2014, dated 2025)", "molecules": {"B1": {"name": "SEMA3F: Human recombinant full-length His-Myc-tagged SEMA3F, secreted by transfected 293T cells and purified; class 3 semaphorin, NRP-2 ligand (protein, listed as Homo sapiens)", "chain": "MLVAGLLLWASLLTGAWPSFPTQDHLPATPRVRLSFKELKATGTAHFFNFLLNTTDYRILLKDEDHDRMYVGSKDYVLSLDLHDINREPLIIHWAASPQRIEECVLSGKDVNGECGNFVRLIQPWNRTHLYVCGTGAYNPMCTYVNRGRRAQATPWTQTQAVRGRGSRATDGALRPMPTAPRQDYIFYLEPERLESGKGKCPYDPKLDTASALINEELYAGVYIDFMGTDAAIFRTLGKQTAMRTDQYNSRWLNDPSFIHAELIPDSAERNDDKLYFFFRERSAEAPQSPAVYARIGRICLNDDGGHCCLVNKWSTFLKARLVCSVPGEDGIETHFDELQDVFVQQTQDVRNPVIYAVFTSSGSVFRGSAVCVYSMADIRMVFNGPFAHKEGPNYQWMPFSGKMPYPRPGTCPGGTFTPSMKSTKDYPDEVINFMRSHPLMYQAVYPLQRRPLVVRTGAPYRLTTIAVDQVDAADGRYEVLFLGTDRGTVQKVIVLPKDDQELEELMLEEVEVFKDPAPVKTMTISSKRQQLYVASAVGVTHLSLHRCQAYGAACADCCLARDPYCAWDGQACSRYTASSKRRSRRQDVRHGNPIRQCRGFNSNANKNAVESVQYGVAGSAAFLECQPRSPQATVKWLFQRDPGDRRREIRAEDRFLRTEQGLLLRALQLSDRGLYSCTATENNFKHVVTRVQLHVLGRDAVHAALFPPLSMSAPPPPGAGPPTPPYQELAQLLAQPEVGLIHQYCQGYWRHVPPSPREAPGAPRSPEPQDQKKPRNRRHHPPDT", "modifications": "His-Myc tag", "notes": "Human recombinant full-length His-Myc-tagged SEMA3F, secreted by transfected 293T cells and purified; class 3 semaphorin, NRP-2 ligand"}}, "key": {"[1]": {"tested_on": "C57BL/6 recipients of fully mismatched BALB/c cardiac allografts", "test": "Fully MHC mismatched cardiac allograft survival (BALB/c into C57BL/6)", "format": "in vivo, mice", "conditions": "for mean graft survival: untreated controls 6.5 days", "excerpt": "FIG. 2 depicts graft survival curves. Cardiac allografts (Balb/c) were transplanted into fully MHC mismatched recipients (C57BL/6). Unmanipulated recipients reject these allografts within 7-8 days.\nFIG. 3 depicts graft survival curves. Cardiac allografts (Balb/c) were transplanted into fully MHC mismatched recipients (C57BL/6). Unmanipulated recipients reject these allografts within 7-8 days.\nFIG. 4 depicts graft survival curves of C56BL6 recipient mice after transplantation with Balb/C donor hearts.\nDescribed herein is the treatment of C57BL/6 recipients of fully mismatched BALB/c cardiac allografts with Sema3F.\nBa1b/C donor hearts were transplanted into C56BL6 mice."}, "HUVEC": {"tested_on": "HUVEC", "test": "Western blot of pAkt in HUVEC after PTEN siRNA knockdown", "format": "cell-based, human", "conditions": "PTEN siRNA 20 nM, SEMA3F 1800 ng/ml", "method": "FIG. 36A depicts a western blot. HUVEC were treated with SEMA3F (1800 ng/ml) for 30 minutes and were subjected to immunoprecipitation and Western blot analyses with anti-NRP2 and -PTEN as illustrated. FIG. 36B depicts a western blot. HUVEC were transfected with control-, or Plexin A1-specific siRNAs (20 nM), prior to SEMA3F treatment (1800 ng/ml); lysates were subjected to immunoprecipitation and Western blot analyses with anti-NRP2 and anti-PTEN as illustrated. FIG. 36C depicts a western blot. HUVEC were transfected with control-, or PTEN-specific siRNAs (20 nM), prior to SEMA3F treatment (1800 ng/ml); lysates were analyzed by Western blot. FIG. 36D depicts a western blot. U87MG cells were transfected with control or GIPC1-specific siRNA (20 nM). After 48 hours, cells were treated with SEMA3F (200, 600, 1800 ng/ml, from left to right) for 30 minutes, and were analyzed by Western blot. FIG. 36E depicts a western blot. U87MG cells were treated with U0126 (10 μM) for 30 minutes prior to combination with 30 minutes and 60 minutes of SEMA3F (640 ng/ml). Akt and MAPK signaling was analyzed by Western blot. All data presented are representative of 3 independent experiments.\nIt is thus likely that SEMA3F inactivates mTORC2 via upstream inhibition of PI-3K. […]"}, "PI-3K": {"tested_on": "PI-3K", "test": "PI3-Kinase Activity ELISA", "format": "cell-based, human", "method": "FIG. 28A depicts U87MG cells untreated (control) or following treatment with SEMA3F (640 ng/ml) for 30 minutes. Cell lysates were evaluated by phosphoprotein kinase antibody array. FIG. 28B depicts results of the array validated by Western blot analysis. FIG. 28C depicts U87MG cells treated with SEMA3F (640 ng/ml) as a time course up to 60 minutes and were analyzed by Western blot. FIGS. 28B-28C are representative of 3 independent experiments. FIG. 28D depicts U87MG, Jurkat and HUVEC cells treated with SEMA3F (200, 600, 1800 ng/ml, bars from left to right) for 15 minutes (grey bars) or 30 minutes (black bars); as a positive control, HUVEC were treated with VEGF-A (25 ng/ml) for 15 and 30 minutes. In addition, HUVEC were pre-treated with SEMA3F (1800 ng/ml) or PBS as a control for 30 minutes and subsequently VEGF-A (25 ng/ml) was added to the culture for 15 and 30 minutes. PI-3K activity was analyzed by ELISA according to the manufacturer's instructions. Data represent the mean±SD of 3 experiments.\nSEMA3F inhibits Akt, mTOR, and S6K phosphorylation. To determine the effect of SEMA3F on intracellular signaling responses, levels of phosphokinases in the NRP2-expressing human glioblastoma cell line U87MG were profiled.\nThe VEGF-A (DVE00) ELISA kit was obtained from R&D Systems (Minneapolis, MN). […]"}, "Jurkat T cells": {"tested_on": "Jurkat T cells", "test": "Western blot of pAkt (S473) in NRP-2-expressing Jurkat T cells", "format": "cell-based, human", "conditions": "30 min", "method": "FIG. 20 depicts the results of Western blots of NRP-2-expressing Jurkat T cells treated with increasing concentrations of SEMA3F for 30 min. Expression of pAkt (S473) was evaluated by Western blot.\nIn addition, as illustrated in FIG. 20 NRP-2-expressing Jurkat T cells were treated with increasing concentrations of SEMA3F for 30 min. and expression of pAkt (S473) was evaluated by Western blot. Expression is reduced following treatment with high concentrations of SEMA3F (>600 ng/ml)\nWestern blotting: Proteins within each sample were separated by SDS-PAGE and transferred to nitrocellulose membranes. The membranes were blocked with 4% skimmed milk in TBS-T (0.1% Tween 20 in tris-buffered saline [TBS]) for 30 minutes, followed by incubation with the primary antibody. After washing with TBS-T, membranes were incubated with the appropriate horseradish peroxidase-conjugated secondary antibody, and immunoreactivity was detected by using ECL detection reagents."}, "VEGF": {"tested_on": "VEGF", "test": "VEGF protein in conditioned media by ELISA, U87MG cells", "format": "cell-based, human", "conditions": "SEMA3F, rapamycin 10 nM or Torin 1 10 nM, 30 minutes prior to DFO, supernatants after 18 hours", "protocol": "In each panel data are representative of 3 independent experiments. Bar graphs represent the mean±SD of n=3 experiments performed in triplicate, *, p<0.01 vs. control.\nFinally, the effect of SEMA3F on the secretion of VEGF into conditioned media (by ELISA) was determined in the absence or presence of DFO.\nThe VEGF-A (DVE00) ELISA kit was obtained from R&D Systems (Minneapolis, MN). […] Desferrioxamine (DFO) was purchased from Sigma-Aldrich, and the MEK inhibitor (U0126) was purchased from EMD-Millipore (Billerica, MA). pGL4.74 [hRluc/TK] vector (Promega Madison, WI) was used as an internal control in luciferase assay."}}, "data": [{"molecule": "B1", "values": [{"measurement": "rejection in NRP-2KO mice", "setting": "[1]; NRP-2KO recipients", "result": "can inhibit rejection"}, {"measurement": "mean graft survival", "setting": "[1]; Sema3F administered via adenovirus, n=4 mice", "result": "> 22", "unit": "days"}, {"measurement": "mean graft survival", "setting": "[1]; Sema3F administered via i.p. injection, n=16 mice", "result": 23.4, "unit": "days"}, {"measurement": "CD3, CD4, CD8 and Treg populations by FACS", "setting": "[1]; day 5 post transplantation, mice of FIG. 2 (adenovirus)", "result": "no differences are observed"}, {"measurement": "pAkt expression following siRNA knockdown of PTEN", "setting": "HUVEC", "result": "failed to inhibit pAkt expression"}, {"measurement": "PI-3K activity", "setting": "PI-3K; U87MG, Jurkat and HUVEC, SEMA3F 200, 600, 1800 ng/ml, 15 or 30 minutes", "result": "inhibited PI-3K activity"}, {"measurement": "VEGF-induced PI-3K activation", "setting": "PI-3K; endothelial cells (HUVEC) pre-treated with SEMA3F 1800 ng/ml for 30 minutes, then VEGF-A 25 ng/ml", "result": "inhibited subsequent VEGF-induced PI-3K activation"}, {"measurement": "concentration of SEMA3F at which expression of pAkt (S473) is reduced", "setting": "Jurkat T cells", "result": "> 600", "unit": "ng/ml"}, {"measurement": "DFO-induced VEGF protein secretion", "setting": "VEGF", "result": "significantly reduced"}]}]}
